Reference: article PMC6783867

Target: 10th and 11th cadherin repeat domains of the Plutella xylostella cadherin (PxCR10–11), GST-tagged (Plutella xylostella)
Test: BLI; Octet Red 96; GST-tagged PxCR10–11 loaded onto anti-GST biosensors; toxin 38.5 to 576.9 nM in solution; 400 s association, 400 s dissociation; 10 mM GSH, 50 mM Tris, pH 8.0; 1:1 binding model

Row | Substance | Kd [nM]
1 | Cry2Ab–AVM bioconjugate (Cry2Ab30 conjugated with 4''-O-succinyl avermectin) | 3.44
2 | Cry2Ab–AVMd (Cry2Ab30 conjugated with 4'',5-O-succinyl avermectin) | 71.9
